Reference: paper PMC6035221, “Interaction between parasite-encoded JAB1/CSN5 and macrophage migration inhibitory factor proteins attenuates its proinflammatory function” (Scientific Reports, 2018)

Target: T1, GST-tagged full-length EhJAB1 (Entamoeba histolytica, UniProt C4LTS3 1-318)
T1 construct: EhJAB1 of Entamoeba histolytica, EHI_050500, full length (gene of 957 base pairs; deletions count to residue 318), codon optimized; Cloned in pDEST15 and sub-cloned in pGEX-4T1; also called GST-EhJAB1; GST-JAB1; source: E. coli BL21(DE3); purified on glutathione-sepharose (BLI)
T1 sequence (looked up): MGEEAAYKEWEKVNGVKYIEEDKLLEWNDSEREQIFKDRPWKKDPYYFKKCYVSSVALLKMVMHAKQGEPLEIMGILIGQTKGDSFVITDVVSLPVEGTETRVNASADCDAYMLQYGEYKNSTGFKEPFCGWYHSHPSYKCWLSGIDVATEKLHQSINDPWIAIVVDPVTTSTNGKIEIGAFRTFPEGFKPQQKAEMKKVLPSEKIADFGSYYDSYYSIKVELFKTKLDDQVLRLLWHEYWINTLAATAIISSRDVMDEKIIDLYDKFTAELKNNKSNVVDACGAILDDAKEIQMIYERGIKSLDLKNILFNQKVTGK
Assay: BLI; GST-EhJAB1 or GST loaded on anti-GST biosensors; EhMIF 5 to 80 nM (2-fold series); 1x DPBS, 0.1% BSA, 0.02% Tween 20; association 600 s, dissociation 600 s
Settings: both partners purified

B1: Entamoeba histolytica MIF (EhMIF), recombinant (natural protein)
chain: MPHALITLSADITEEIKKEIAHESMKILSEVIGKPISYCATQVVTSVGGFGGKIVKSAFIDIKSISGLKGKQEGLSDRYCKLLEQKAGIEGGNIYLNFTEMTGNNWGYDHSTF
B1 gave a Kd of 38.6 nM.
